Several values for one entry are separate records, joined by “and”; a condition that tells them apart may be missing. Equal entries are not always repeated.
Experiments:
[1] = cited from earlier work
[2] = thought: two apoA-I molecules (10 helices/molecule) reside in discoidal HDL particles; cited from earlier work
[3] = system: plasma total cholesterol; details: cited from earlier work
[4] = Size exclusion chromatography of DMPC-based peptide nanoparticles; format: physicochemical; details: construct 300 μM, PBS, overnight, Superdex 200, standard curve of four globular proteins

For “apoA-I: Apolipoprotein A-I, the primary structural protein within HDL particles”, the “plasma half-life in mice” value [1] is listed as 11 h, the “helices per particle (value in parentheses)” value [2] is listed as 20 and the “reduction in plasma cholesterol levels, in words” value [3] is listed as “neither apoA-I nor rHDLs cause significant reduction”. For the same substance, the “SEC Stokes diameter” value [4] was 15 nm and 10 nm.

Source: article PMC3839580 (Journal of the American Chemical Society, 2013)
